Experimental data published in patent US9395368B2, “Methods, agents and peptides for inducing an immune response to matrix metalloproteinase-2 expressing tumors” (New York University, priority 2010, dated 2016).

Tested on: human basophils
Assay: Basophil activation by MMP-2 (IL-4, TSLP, CD203c)
Type: cell-based

B1: active MMP-2: Purified human MMP-2 (mixture of the proenzyme (50%) and the active form (50%)) purchased from Biomol (protein, listed as Homo sapiens)
chain: MEALMARGALTGPLRALCLLGCLLSHAAAAPSPIIKFPGDVAPKTDKELAVQYLNTFYGCPKESCNLFVLKDTLKKMQKFFGLPQTGDLDQNTIETMRKPRCGNPDVANYNFFPRKPKWDKNQITYRIIGYTPDLDPETVDDAFARAFQVWSDVTPLRFSRIHDGEADIMINFGRWEHGDGYPFDGKDGLLAHAFAPGTGVGGDSHFDDDELWTLGEGQVVRVKYGNADGEYCKFPFLFNGKEYNSCTDTGRSDGFLWCSTTYNFEKDGKYGFCPHEALFTMGGNAEGQPCKFPFRFQGTSYDSCTTEGRTDGYRWCGTTEDYDRDKKYGFCPETAMSTVGGNSEGAPCVFPFTFLGNKYESCTSAGRSDGKMWCATTANYDDDRKWGFCPDQGYSLFLVAAHEFGHAMGLEHSQDPGALMAPIYTYTKNFRLSQDDIKGIQELYGASPDIDLGTGPTPTLGPVTPEICKQDIVFDGIAQIRGEIFFFKDRFIWRTVTPRDKPMGPLLVATFWPELPEKIDAVYEAPQEEKAVFFAGNEYWIYSASTLERGYPKPLTSLGLPPDVQRVDAAFNWSKNKKTYIFAGDKFWRYNEVKKKMDPGFPKLIADAWNAIPDNLDAVVDLQGGGHSYFFKGAYYLKLENQSLKSVKFGSIKSDWLGC
MMP-2 0.5 and 5 μg/mL
  production of IL-4 by basophils: neither induced
MMP-2 0.5 and 5 μg/mL, 16 h
  production of TSLP by basophils: neither induced
PBMCs, 6 h
  expression of basophil activation marker CD203c: did not increase
